Laboratory results published in patent USRE47150 (Bayer, dated 2018).

T1: human tissue factor pathway inhibitor (TFPI) (human, UniProt P10646 29-304, limits assumed)
T1 construct: bought; also called hTFPI; human TFPI
T1 sequence (looked up): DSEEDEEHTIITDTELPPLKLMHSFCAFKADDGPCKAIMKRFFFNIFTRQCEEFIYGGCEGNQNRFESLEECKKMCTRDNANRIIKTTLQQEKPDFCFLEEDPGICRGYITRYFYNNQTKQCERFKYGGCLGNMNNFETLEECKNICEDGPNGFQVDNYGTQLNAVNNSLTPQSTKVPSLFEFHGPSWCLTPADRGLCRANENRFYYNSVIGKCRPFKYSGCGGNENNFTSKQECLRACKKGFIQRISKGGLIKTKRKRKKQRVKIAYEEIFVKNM

T2: mouse tissue factor pathway inhibitor (TFPI) (mouse, UniProt O54819 29-289, limits assumed)
T2 construct: bought; also called mTFPI; murine TFPI
T2 sequence (looked up): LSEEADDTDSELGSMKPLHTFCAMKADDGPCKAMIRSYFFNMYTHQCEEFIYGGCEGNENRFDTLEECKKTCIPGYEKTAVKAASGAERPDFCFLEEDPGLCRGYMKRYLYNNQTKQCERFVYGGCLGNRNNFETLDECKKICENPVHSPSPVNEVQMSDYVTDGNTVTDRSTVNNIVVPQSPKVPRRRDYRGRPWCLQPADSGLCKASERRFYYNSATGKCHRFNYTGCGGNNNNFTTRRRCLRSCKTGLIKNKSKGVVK


Key:
[1] = target: T1, human tissue factor pathway inhibitor …; test: competitive ELISA
[2] = target: T2, mouse tissue factor pathway inhibitor …; test: competitive ELISA

variant/HC_D62R [1] | variant/HC_D62R [2] | binding result [2] | Binder
20.8 ratio | 15.8 ratio |  | 4B7 HC N32D+D62Q+Y112D/LC F31M+S32R+D33F+N35I (Fab, V domains shown) VH: QVQLQQSGPGLVKPSQTLSLTCAISGDSVSSDSAAWSWIRQSPGRGLEWLGIIYKRSKWYNQYAVSVKSRITINPDTSKNQFSLQLNSVTPEDTAVYYCARWHSDKHWGFDDWGQGTLVTVSS VL: DIVMTQSPLSLPVTPGEPASISCRSSQSLVMRFGITYLNWYLQKPGQSPQLLIYKGSNRASGVPDRFSGSGSGTDFTLKISRVEAEDVGVYYCQQYDSYPLTFGQGTKVEIKR
21.4 ratio | 16.7 ratio |  | 4B7 HC N32D+D62Q+Y112D/LC F31I+D33F+N35I+L42Q (Fab, V domains shown) VH: QVQLQQSGPGLVKPSQTLSLTCAISGDSVSSDSAAWSWIRQSPGRGLEWLGIIYKRSKWYNQYAVSVKSRITINPDTSKNQFSLQLNSVTPEDTAVYYCARWHSDKHWGFDDWGQGTLVTVSS VL: DIVMTQSPLSLPVTPGEPASISCRSSQSLVISFGITYLNWYQQKPGQSPQLLIYKGSNRASGVPDRFSGSGSGTDFTLKISRVEAEDVGVYYCQQYDSYPLTFGQGTKVEIKR
27.3 ratio | 46.3 ratio |  | 4B7 HC N32D+D62Q+Y112D/LC F31I+D33F+N35I+T36N (Fab, V domains shown) VH: QVQLQQSGPGLVKPSQTLSLTCAISGDSVSSDSAAWSWIRQSPGRGLEWLGIIYKRSKWYNQYAVSVKSRITINPDTSKNQFSLQLNSVTPEDTAVYYCARWHSDKHWGFDDWGQGTLVTVSS VL: DIVMTQSPLSLPVTPGEPASISCRSSQSLVISFGINYLNWYLQKPGQSPQLLIYKGSNRASGVPDRFSGSGSGTDFTLKISRVEAEDVGVYYCQQYDSYPLTFGQGTKVEIKR
23.2 ratio | 40 ratio |  | 4B7 HC N32D+D62Q+Y112D/LC S32R+D33F+N35I+D97T (Fab, V domains shown) VH: QVQLQQSGPGLVKPSQTLSLTCAISGDSVSSDSAAWSWIRQSPGRGLEWLGIIYKRSKWYNQYAVSVKSRITINPDTSKNQFSLQLNSVTPEDTAVYYCARWHSDKHWGFDDWGQGTLVTVSS VL: DIVMTQSPLSLPVTPGEPASISCRSSQSLVFRFGITYLNWYLQKPGQSPQLLIYKGSNRASGVPDRFSGSGSGTDFTLKISRVEAEDVGVYYCQQYTSYPLTFGQGTKVEIKR
13.5 ratio |  | no binding | 4B7 HC N32D+D62Q+Y112D/LC F31I+D33F+N35I+S98H (Fab, V domains shown) VH: QVQLQQSGPGLVKPSQTLSLTCAISGDSVSSDSAAWSWIRQSPGRGLEWLGIIYKRSKWYNQYAVSVKSRITINPDTSKNQFSLQLNSVTPEDTAVYYCARWHSDKHWGFDDWGQGTLVTVSS VL: DIVMTQSPLSLPVTPGEPASISCRSSQSLVISFGITYLNWYLQKPGQSPQLLIYKGSNRASGVPDRFSGSGSGTDFTLKISRVEAEDVGVYYCQQYDHYPLTFGQGTKVEIKR

Further lines, the binder ahead of its results:

Binder | variant/HC_D62R [1] | variant/HC_D62R [2] | binding result [2]
4B7 HC N32D+D62Q+H107M+Y112D/LC F31M+D33F+N35T+Y37F (Fab, V domains shown) VH: QVQLQQSGPGLVKPSQTLSLTCAISGDSVSSDSAAWSWIRQSPGRGLEWLGIIYKRSKWYNQYAVSVKSRITINPDTSKNQFSLQLNSVTPEDTAVYYCARWHSDKMWGFDDWGQGTLVTVSS VL: DIVMTQSPLSLPVTPGEPASISCRSSQSLVMSFGTTFLNWYLQKPGQSPQLLIYKGSNRASGVPDRFSGSGSGTDFTLKISRVEAEDVGVYYCQQYDSYPLTFGQGTKVEIKR | 19.4 ratio | 35.3 ratio | 
4B7 HC N32D+D62Q+H107M+Y112D/LC S32R+D33F+N35I (Fab, V domains shown) VH: QVQLQQSGPGLVKPSQTLSLTCAISGDSVSSDSAAWSWIRQSPGRGLEWLGIIYKRSKWYNQYAVSVKSRITINPDTSKNQFSLQLNSVTPEDTAVYYCARWHSDKMWGFDDWGQGTLVTVSS VL: DIVMTQSPLSLPVTPGEPASISCRSSQSLVFRFGITYLNWYLQKPGQSPQLLIYKGSNRASGVPDRFSGSGSGTDFTLKISRVEAEDVGVYYCQQYDSYPLTFGQGTKVEIKR | 24.7 ratio | 46.6 ratio | 
4B7 HC N32D+D62Q+H107M+Y112D/LC N35I (Fab, V domains shown) VH: QVQLQQSGPGLVKPSQTLSLTCAISGDSVSSDSAAWSWIRQSPGRGLEWLGIIYKRSKWYNQYAVSVKSRITINPDTSKNQFSLQLNSVTPEDTAVYYCARWHSDKMWGFDDWGQGTLVTVSS VL: DIVMTQSPLSLPVTPGEPASISCRSSQSLVFSDGITYLNWYLQKPGQSPQLLIYKGSNRASGVPDRFSGSGSGTDFTLKISRVEAEDVGVYYCQQYDSYPLTFGQGTKVEIKR | 22.2 ratio | 16.4 ratio | 
4B7 HC N32D+D62Q+Y112D/LC F31I+D33F+N35I+K44R (Fab, V domains shown) VH: QVQLQQSGPGLVKPSQTLSLTCAISGDSVSSDSAAWSWIRQSPGRGLEWLGIIYKRSKWYNQYAVSVKSRITINPDTSKNQFSLQLNSVTPEDTAVYYCARWHSDKHWGFDDWGQGTLVTVSS VL: DIVMTQSPLSLPVTPGEPASISCRSSQSLVISFGITYLNWYLQRPGQSPQLLIYKGSNRASGVPDRFSGSGSGTDFTLKISRVEAEDVGVYYCQQYDSYPLTFGQGTKVEIKR | 22.8 ratio | 18.5 ratio | 
4B7 HC N32D+D62Q+H107M+Y112D/LC F31M+S32R+D33F+N35I+D97T (Fab, V domains shown) VH: QVQLQQSGPGLVKPSQTLSLTCAISGDSVSSDSAAWSWIRQSPGRGLEWLGIIYKRSKWYNQYAVSVKSRITINPDTSKNQFSLQLNSVTPEDTAVYYCARWHSDKMWGFDDWGQGTLVTVSS VL: DIVMTQSPLSLPVTPGEPASISCRSSQSLVMRFGITYLNWYLQKPGQSPQLLIYKGSNRASGVPDRFSGSGSGTDFTLKISRVEAEDVGVYYCQQYTSYPLTFGQGTKVEIKR | 19 ratio | 12 ratio | 
4B7 HC N32D+D62Q+Y112D/LC F31I+D33F+N35I+D97T (Fab, V domains shown) VH: QVQLQQSGPGLVKPSQTLSLTCAISGDSVSSDSAAWSWIRQSPGRGLEWLGIIYKRSKWYNQYAVSVKSRITINPDTSKNQFSLQLNSVTPEDTAVYYCARWHSDKHWGFDDWGQGTLVTVSS VL: DIVMTQSPLSLPVTPGEPASISCRSSQSLVISFGITYLNWYLQKPGQSPQLLIYKGSNRASGVPDRFSGSGSGTDFTLKISRVEAEDVGVYYCQQYTSYPLTFGQGTKVEIKR | 14.4 ratio | 4.6 ratio | 
4B7 HC N32D+D62Q+H107M+Y112D/LC S32R+N35T (Fab, V domains shown) VH: QVQLQQSGPGLVKPSQTLSLTCAISGDSVSSDSAAWSWIRQSPGRGLEWLGIIYKRSKWYNQYAVSVKSRITINPDTSKNQFSLQLNSVTPEDTAVYYCARWHSDKMWGFDDWGQGTLVTVSS VL: DIVMTQSPLSLPVTPGEPASISCRSSQSLVFRDGTTYLNWYLQKPGQSPQLLIYKGSNRASGVPDRFSGSGSGTDFTLKISRVEAEDVGVYYCQQYDSYPLTFGQGTKVEIKR | 25 ratio | 27.1 ratio | 
4B7 HC N32D+D62Q+H107M+Y112D/LC S32R+D33R (Fab, V domains shown) VH: QVQLQQSGPGLVKPSQTLSLTCAISGDSVSSDSAAWSWIRQSPGRGLEWLGIIYKRSKWYNQYAVSVKSRITINPDTSKNQFSLQLNSVTPEDTAVYYCARWHSDKMWGFDDWGQGTLVTVSS VL: DIVMTQSPLSLPVTPGEPASISCRSSQSLVFRRGNTYLNWYLQKPGQSPQLLIYKGSNRASGVPDRFSGSGSGTDFTLKISRVEAEDVGVYYCQQYDSYPLTFGQGTKVEIKR | 24.9 ratio | 24.7 ratio | 
4B7 HC N32D+D62Q+H107M+Y112D/LC S32R+D33F (Fab, V domains shown) VH: QVQLQQSGPGLVKPSQTLSLTCAISGDSVSSDSAAWSWIRQSPGRGLEWLGIIYKRSKWYNQYAVSVKSRITINPDTSKNQFSLQLNSVTPEDTAVYYCARWHSDKMWGFDDWGQGTLVTVSS VL: DIVMTQSPLSLPVTPGEPASISCRSSQSLVFRFGNTYLNWYLQKPGQSPQLLIYKGSNRASGVPDRFSGSGSGTDFTLKISRVEAEDVGVYYCQQYDSYPLTFGQGTKVEIKR | 23.2 ratio | 16.9 ratio | 
